In this data set the target is T1, CasX 491 (engineered CasX).
T1 chain: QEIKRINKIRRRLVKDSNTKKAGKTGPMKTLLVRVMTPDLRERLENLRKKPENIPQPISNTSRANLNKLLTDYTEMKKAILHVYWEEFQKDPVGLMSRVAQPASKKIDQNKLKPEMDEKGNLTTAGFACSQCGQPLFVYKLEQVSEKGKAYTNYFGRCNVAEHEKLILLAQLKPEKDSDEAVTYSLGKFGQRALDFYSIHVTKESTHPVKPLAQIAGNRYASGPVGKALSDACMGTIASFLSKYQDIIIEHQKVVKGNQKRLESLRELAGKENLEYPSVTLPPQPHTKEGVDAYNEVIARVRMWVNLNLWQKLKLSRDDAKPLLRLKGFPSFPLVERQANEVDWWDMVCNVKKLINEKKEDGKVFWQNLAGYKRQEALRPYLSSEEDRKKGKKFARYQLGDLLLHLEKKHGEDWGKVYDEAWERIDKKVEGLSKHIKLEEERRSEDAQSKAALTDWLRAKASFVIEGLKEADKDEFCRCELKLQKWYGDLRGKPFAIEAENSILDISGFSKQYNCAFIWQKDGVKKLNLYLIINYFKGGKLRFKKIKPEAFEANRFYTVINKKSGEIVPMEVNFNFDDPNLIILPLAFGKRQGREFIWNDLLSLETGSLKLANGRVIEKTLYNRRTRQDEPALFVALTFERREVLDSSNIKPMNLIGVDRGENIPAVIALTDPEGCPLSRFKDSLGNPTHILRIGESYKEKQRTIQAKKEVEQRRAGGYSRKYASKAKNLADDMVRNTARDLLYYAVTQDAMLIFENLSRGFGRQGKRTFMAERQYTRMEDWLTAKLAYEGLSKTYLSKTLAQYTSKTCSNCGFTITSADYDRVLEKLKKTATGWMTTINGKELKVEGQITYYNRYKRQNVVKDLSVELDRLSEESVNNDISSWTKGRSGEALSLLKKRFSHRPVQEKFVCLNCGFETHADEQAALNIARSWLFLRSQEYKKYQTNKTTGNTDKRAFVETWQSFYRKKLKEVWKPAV
Briefly: cell_activity; high dose; about 25% greater at low dose; PAM not stated for this spacer. As for the experimental part: Cells were nucleofected with the indicated doses of p59 plasmids encoding CasX 491, the scaffold, and spacer 11.30 (5' […] 3', SEQ ID NO: 17) targeting mRHO. […] Cells were nucleofected with the indicated doses of p59 plasmids encoding CasX 491, the scaffold, and spacer 12.7 (5' […]-GUUU 3', SEQ ID NO: 1146) targeting repeat elements preventing expression of the tdTomato fluorescent protein. Editing was assessed 5 days post-transfection by FACS, to quantify the fraction of tdTomato positive cells.

B1: sgRNA scaffold 235 + spacer 12.7 ; tdTomato locus target (spacer 12.7 protospacer) (ssRNA ; dsDNA)
RNA: ACUGGCGCUUCUAUCUGAUUACUCUGAGCGCCAUCACCAGCGACUAUGUCGUAGUGGGUAAAGCCGCUUACGGACUUCGGUCCGUAAGAGGCAUCAGAGCUGCAUUCUAGUUGUGGUUU
DNA 1: CTGCATTCTAGTTGTGGTTT
DNA 2: AAACCACAACTAGAATGCAG
For the molecule B1, the activity is ~35 % greater than scaffold 174.
